The source of these data is PMC1459065.

The target of data set [1] is T1, RecA (Escherichia coli, UniProt P0A7G6 1-353). In words: double filter binding.
Data set [2] deals with T1, RecA. In words: double filter binding. The source holds these as a separate data set.

Like-named read-outs stand apart in the source and are kept apart here.

T1 sequence (P0A7G6 whole entry): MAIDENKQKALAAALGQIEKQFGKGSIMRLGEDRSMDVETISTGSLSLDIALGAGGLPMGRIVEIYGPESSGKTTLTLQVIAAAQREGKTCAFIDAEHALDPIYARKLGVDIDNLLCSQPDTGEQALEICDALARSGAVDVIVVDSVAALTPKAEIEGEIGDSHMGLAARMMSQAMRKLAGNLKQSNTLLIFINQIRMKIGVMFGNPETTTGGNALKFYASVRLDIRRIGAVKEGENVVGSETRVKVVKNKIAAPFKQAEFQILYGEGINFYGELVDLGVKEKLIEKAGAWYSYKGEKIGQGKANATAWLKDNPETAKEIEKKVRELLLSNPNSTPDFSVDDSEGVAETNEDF

For CCACCACCACCACCACCACCACCACCACCACCACCACCACCACCACCA (ssDNA) [CCA-repeating 48mer], in the data set with RecA [1], binding was put at a Kd of 246 nM.

With TGGTGGTGGTGGTGGTGGTGGTGGTGGTGGTGGTGGTGGTGGTGGTGG (ssDNA) [TGG-repeating 48mer], binding with RecA [2] was put at a Kd of 91 nM.

The term Kd denotes the equilibrium constant for the complex coming apart.
